{"source": "patent US20120148607A1", "about": "(ARGEN X N V, published 2012)"}
{"molecular_target": "T1, recombinant dimeric c-Met (R&D systems, 358-MT/CF) (human, UniProt P08581 25-932)", "T1 construct": "Bought product; also called Fc-Met; recombinant c-Met", "T1 sequence (P08581 25-932 limits assumed)": "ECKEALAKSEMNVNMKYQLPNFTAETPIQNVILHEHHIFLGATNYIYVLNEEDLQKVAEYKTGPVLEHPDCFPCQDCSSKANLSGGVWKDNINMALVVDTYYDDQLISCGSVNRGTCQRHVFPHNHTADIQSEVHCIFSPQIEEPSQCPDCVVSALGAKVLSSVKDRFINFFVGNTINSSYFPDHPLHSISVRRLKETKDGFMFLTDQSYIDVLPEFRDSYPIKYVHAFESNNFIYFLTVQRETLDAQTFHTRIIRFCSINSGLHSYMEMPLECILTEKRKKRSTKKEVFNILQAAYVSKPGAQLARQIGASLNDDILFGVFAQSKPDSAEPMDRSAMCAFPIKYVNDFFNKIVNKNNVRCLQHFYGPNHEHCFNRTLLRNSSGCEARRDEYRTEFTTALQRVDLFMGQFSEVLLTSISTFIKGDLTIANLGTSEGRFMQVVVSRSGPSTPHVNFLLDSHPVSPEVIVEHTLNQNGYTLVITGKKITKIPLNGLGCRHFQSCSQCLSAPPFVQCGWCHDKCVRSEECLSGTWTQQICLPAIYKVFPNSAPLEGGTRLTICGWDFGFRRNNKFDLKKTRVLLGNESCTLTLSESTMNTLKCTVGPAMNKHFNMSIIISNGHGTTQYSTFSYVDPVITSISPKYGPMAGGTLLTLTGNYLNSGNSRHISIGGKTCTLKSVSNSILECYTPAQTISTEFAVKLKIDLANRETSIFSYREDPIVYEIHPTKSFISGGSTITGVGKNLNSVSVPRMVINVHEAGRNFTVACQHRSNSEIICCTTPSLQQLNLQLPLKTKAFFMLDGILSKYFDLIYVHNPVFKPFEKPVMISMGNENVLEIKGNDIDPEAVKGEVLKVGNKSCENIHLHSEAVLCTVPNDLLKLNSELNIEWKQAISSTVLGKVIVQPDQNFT", "experiment": "SPR, periplasmic Fab over Fc-Met (around 3000 RU) on CM5 chip", "experimental": "The clones were then tested for their dissociation constants by Surface Plasmon Resonance. Around 3000 RU of Fc-Met was immobilized directly onto a CM5 chip to obtain a clear binding profile from the periplasmic extracts. Clones with an improved off-rate were sent for sequencing.", "units": {"koff": "s⁻¹"}}
{"binder": "36C4Q Fab (Fab, V domains shown) VH: QVQLVESGPGLVKPSQTLSLTCAVSGGSITTNYYYWSWIRQSPGKGLEWMGVIAYDGSTDYSPSLKSRTSISRDTSKNQFSLQLSSVTPEDTAVYYCARDVRVIATGWATANALDAWGQGTQVTVSS VL: QSVLTQPPSVSGSPGKTVTISCAGTSSDVGYGNYVSWYQQLPGTAPKLLIFAVSYRASGIPDRFSGSKSGNTAFLTISGLQSEDEADYYCASYRSSNNAAVFGGGTHLTVL", "koff": 0.00017}
{"binder": "49E11 VL shuffled Fab (Fab, V domains shown, VL-shuffled Fab with the 36C4Q heavy chain, periplasmic extract) VH: QVQLVESGPGLVKPSQTLSLTCAVSGGSITTNYYYWSWIRQSPGKGLEWMGVIAYDGSTDYSPSLKSRTSISRDTSKNQFSLQLSSVTPEDTAVYYCARDVRVIATGWATANALDAWGQGTQVTVSS VL: QAVLTQPPSVSGTLGKTVTISCAGTSSDVGYGNYVSWYQKLPGTAPKLLIYAVSYRASGIPDRFSGSKSGNTASLTISGLQSEDEADYHCASYRTSNNVAVFGGGTKLTVL", "koff": 0.00063}
{"binder": "49C4 VL shuffled Fab (Fab, V domains shown, VL-shuffled Fab with the 36C4Q heavy chain, periplasmic extract) VH: QVQLVESGPGLVKPSQTLSLTCAVSGGSITTNYYYWSWIRQSPGKGLEWMGVIAYDGSTDYSPSLKSRTSISRDTSKNQFSLQLSSVTPEDTAVYYCARDVRVIATGWATANALDAWGQGTQVTVSS VL: QSALTQPPSVSGTLGKTVTISCAGTSSDVGYGNYVSWYQKLPGTAPKLLIYAVTYRASGIPDRFSGSKSGNTASLTISGLQSEDEADYYCASYRRSTNVGVFGGGTHLTVL", "koff": 0.00018}
{"binder": "49A1 VL shuffled Fab (Fab, V domains shown, VL-shuffled Fab with the 36C4Q heavy chain, periplasmic extract) VH: QVQLVESGPGLVKPSQTLSLTCAVSGGSITTNYYYWSWIRQSPGKGLEWMGVIAYDGSTDYSPSLKSRTSISRDTSKNQFSLQLSSVTPEDTAVYYCARDVRVIATGWATANALDAWGQGTQVTVSS VL: QSVLTQPPSVSGSPGKTVTISCAGTSSDVGYGNYVSWYQQLPGTAPKLLIFAVSYRASGIPDRFSGSKSGNTAFLTISGLQSEDEADYYCASYRSSNNAAVFGGGTHLTVL", "koff": 0.00017}
{"binder": "49D3 VL shuffled Fab (Fab, V domains shown, VL-shuffled Fab with the 36C4Q heavy chain, periplasmic extract) VH: QVQLVESGPGLVKPSQTLSLTCAVSGGSITTNYYYWSWIRQSPGKGLEWMGVIAYDGSTDYSPSLKSRTSISRDTSKNQFSLQLSSVTPEDTAVYYCARDVRVIATGWATANALDAWGQGTQVTVSS VL: LPVLTQPPSVSGTLGKTLTISCAGTSSDVGYGNYVSWYQQLPGTAPKLLIYAVSYRASGIPDRFSGSKSGNTASLSISGLQSEDEADYYCASYRSSNKNAVFGGGTHLTVL", "koff": 0.00082}
{"binder": "49A11 VL shuffled Fab (Fab, V domains shown, VL-shuffled Fab with the 36C4Q heavy chain, periplasmic extract) VH: QVQLVESGPGLVKPSQTLSLTCAVSGGSITTNYYYWSWIRQSPGKGLEWMGVIAYDGSTDYSPSLKSRTSISRDTSKNQFSLQLSSVTPEDTAVYYCARDVRVIATGWATANALDAWGQGTQVTVSS VL: QSALTQPPSVSGSPGKTVTISCAGTSSDVGYGNYVSWYQKLPGTAPKLLIYAVSYRASGIPDRFSGSRSGNTASLTISGLQSEDEADYYCASYRITNRHSVFGGGTHLTVL", "koff": 0.00048}
{"binder": "49G3 VL shuffled Fab (Fab, V domains shown, VL-shuffled Fab with the 36C4Q heavy chain, periplasmic extract) VH: QVQLVESGPGLVKPSQTLSLTCAVSGGSITTNYYYWSWIRQSPGKGLEWMGVIAYDGSTDYSPSLKSRTSISRDTSKNQFSLQLSSVTPEDTAVYYCARDVRVIATGWATANALDAWGQGTQVTVSS VL: QSALTQPPSVSGTLGKTLTISCAGTSTDVGYGNYVSWYQQLPGTAPKLLIFAVSYRASGIPDRFSGSKSGNTAFLTISGLQSEDEADYYCASYRSSNNAAVFGGGTHLTVL", "koff": 0.00019}
{"binder": "49D2 VL shuffled Fab (Fab, V domains shown, VL-shuffled Fab with the 36C4Q heavy chain, periplasmic extract) VH: QVQLVESGPGLVKPSQTLSLTCAVSGGSITTNYYYWSWIRQSPGKGLEWMGVIAYDGSTDYSPSLKSRTSISRDTSKNQFSLQLSSVTPEDTAVYYCARDVRVIATGWATANALDAWGQGTQVTVSS VL: QSVLTQPPSVSGTLGKTLTISCAGTSTDVGYGNYVSWYQQLPGTAPKLLIFAVSYRASGIPDRFSGSKSGNTAFLTISGLQSEDEADYYCASYRSSNNAAVFGGGTHLTVL", "koff": 0.00017}
{"binder": "48A1 VL shuffled Fab (Fab, V domains shown, VL-shuffled Fab with the 38H10 heavy chain, periplasmic extract; The printed 48A1 VK reads the same as the 38H10 VK) VH: EVQLVQPGVELRNPGASVKVSCKASGYIFTMNSIDWVRQAPGQGLEWMGRIDPEDGGTKYAQKFQGRVTFTADTSTSTAYVELNSLRSEDTAVYYCARVDDYYLGYDYWGQGTQVTVSS VL: EIVMTQSPSSVTASAGEKVTINCKSSQSVLWRSNQKNYLAWYQQRLGQSPRLLISWASIRESGVPDRFSGSGSTTDFTLTISSFQPEDAAVYYCQQGYSFPYTFGSGTRLEIK", "koff": 0.00081}
{"binder": "48A11 VL shuffled Fab (Fab, V domains shown, VL-shuffled Fab with the 38H10 heavy chain, periplasmic extract) VH: EVQLVQPGVELRNPGASVKVSCKASGYIFTMNSIDWVRQAPGQGLEWMGRIDPEDGGTKYAQKFQGRVTFTADTSTSTAYVELNSLRSEDTAVYYCARVDDYYLGYDYWGQGTQVTVSS VL: DIVMTQTPSSVTAAVGEKVAINCKSSQSVLYNPNQKSYLAWYQQRPGQSPRLLIYWASTRESGVPDRFSGSGSTTDFALTISSFQPEDAAVYYCQQGYSFPYSFGSGTRLEIR", "koff": 0.00025}
{"binder": "48E5 VL shuffled Fab (Fab, V domains shown, VL-shuffled Fab with the 38H10 heavy chain, periplasmic extract) VH: EVQLVQPGVELRNPGASVKVSCKASGYIFTMNSIDWVRQAPGQGLEWMGRIDPEDGGTKYAQKFQGRVTFTADTSTSTAYVELNSLRSEDTAVYYCARVDDYYLGYDYWGQGTQVTVSS VL: DIQMTQSPSSVTASAGEKVTINCKSSQSVLYNSNQKNYLAWYQQRLGQSPRLLIYWASTRESGVPDRFSGSGSTTDFTLTISSFQPEDAAVYYCQQGWSFPYTFGSGTRLEIK", "koff": 0.00019}
{"binder": "48D2 VL shuffled Fab (Fab, V domains shown, VL-shuffled Fab with the 38H10 heavy chain, periplasmic extract) VH: EVQLVQPGVELRNPGASVKVSCKASGYIFTMNSIDWVRQAPGQGLEWMGRIDPEDGGTKYAQKFQGRVTFTADTSTSTAYVELNSLRSEDTAVYYCARVDDYYLGYDYWGQGTQVTVSS VL: DIVMTQTPSSVTASAGEKVTINCKSSQSVLYNSNQKNYLAWYQQRLGQSPRLLIYWASTRESGVPDRFSGSGSTTDFTLTISSFQPEDAAVYYCQQGWSFPYTFGSGTRLEIK", "koff": 0.00013}
{"binder": "48C8 VL shuffled Fab (Fab, V domains shown, VL-shuffled Fab with the 38H10 heavy chain, periplasmic extract) VH: EVQLVQPGVELRNPGASVKVSCKASGYIFTMNSIDWVRQAPGQGLEWMGRIDPEDGGTKYAQKFQGRVTFTADTSTSTAYVELNSLRSEDTAVYYCARVDDYYLGYDYWGQGTQVTVSS VL: DIQLTQSPSSVTVSVGEKVTINCKSSQSVLYNSNQKNYLAWYQQRLGQSPRLLIYWASTRESGVPDRFSGSGSTTDFTLTISSFQPEDAAVYYCQQGWSFPYTFGSGTRLEIK", "koff": 0.00033}
{"binder": "48B8 VL shuffled Fab (Fab, V domains shown, VL-shuffled Fab with the 38H10 heavy chain, periplasmic extract) VH: EVQLVQPGVELRNPGASVKVSCKASGYIFTMNSIDWVRQAPGQGLEWMGRIDPEDGGTKYAQKFQGRVTFTADTSTSTAYVELNSLRSEDTAVYYCARVDDYYLGYDYWGQGTQVTVSS VL: DVVMTQSPSSVTASVGEKVTINCKSSQSVLYTSNHKNYLAWYQQRLGQSPRLLIYWASTRESGVPDRFSGSGSTTDFTLTISSFQPEDAAVYYCQQGWSFPYSFGSGTRLEIK", "koff": 0.00033}
{"binder": "48D7 VL shuffled Fab (Fab, V domains shown, VL-shuffled Fab with the 38H10 heavy chain, periplasmic extract) VH: EVQLVQPGVELRNPGASVKVSCKASGYIFTMNSIDWVRQAPGQGLEWMGRIDPEDGGTKYAQKFQGRVTFTADTSTSTAYVELNSLRSEDTAVYYCARVDDYYLGYDYWGQGTQVTVSS VL: DIVMTQTPASVTASAGEKVTINCKSSQSVLFSSNQKNYLAWYQQRVGQSPRLLIYWASTRESGVPDRFSGSGSTTDFTLTISNFQPEDAAVYYCQQGYSFPYSFGSGTRLEIR", "koff": 0.00025}
{"binder": "48E2 VL shuffled Fab (Fab, V domains shown, VL-shuffled Fab with the 38H10 heavy chain, periplasmic extract) VH: EVQLVQPGVELRNPGASVKVSCKASGYIFTMNSIDWVRQAPGQGLEWMGRIDPEDGGTKYAQKFQGRVTFTADTSTSTAYVELNSLRSEDTAVYYCARVDDYYLGYDYWGQGTQVTVSS VL: DVVMTQSPSSVTASAGEKVTINCKSSQSVLWSSNQKNYLAWYQQRVGQSPRLLIYWASTRESGVPDRFSGSGSTTDFTLTISNFQPEDAAVYYCQQGYSFPYSFGSGTRLEIR", "koff": 0.00029}
{"binder": "48B6 VL shuffled Fab (Fab, V domains shown, VL-shuffled Fab with the 38H10 heavy chain, periplasmic extract) VH: EVQLVQPGVELRNPGASVKVSCKASGYIFTMNSIDWVRQAPGQGLEWMGRIDPEDGGTKYAQKFQGRVTFTADTSTSTAYVELNSLRSEDTAVYYCARVDDYYLGYDYWGQGTQVTVSS VL: DIQLTQSPSSVTASAGEKVTINCKSSQSVLYGSNQKNYLAWYQQRLGQSPRLLIYWASTRESGVPDRFSGSGSTTDFTLTISSFQPEDAAVYYCQQGWSFPYTFGSGTRLEIK", "koff": 0.00012}
{"molecular_target": "T1, recombinant dimeric c-Met (R&D systems, …)", "experiment": "SPR, Fab-containing periplasmic extract over immobilised c-Met, dissociation 2 min", "experimental": "HGF-competing clones were sequenced in the VH and the VL regions and divided into VH families based on the sequence of the CDR3 in the VH. These VH families were further tested with Surface Plasmon Resonance (SPR) for dissociation (koff) and recognition of SEMA-PSI or the extracellular domain of c-Met (Decoy). Between 1000-2000 RU of dimeric c-Met, SEMA-PSI or Decoy c-Met was immobilised on a VIA chip with amine coupling in sodium acetate buffer (pH 4.5). The Fab-containing peris were added with a flow rate of 30 μl/min and Fabs were considered to be binding if an increase of the RU was observed. The koff was measured for 2 minutes for each sample.", "units": {"koff": "s⁻¹"}}
{"binder": "12G4 Fab (Fab, V domains shown, Fab from the phage display library, tested as periplasmic extract) VH: QLQLVESGGGMAQPGGSLKLSCAASGFTFDDYAMTWVRQAPGKGLEWLSTISWNDINTYYAESMKDRFTISRDNAKNTLYLQMNSLESEDTAVYYCAKRRDNYYGTSGEYDYWGQGTQVTVSS VL: QSALTQPPSVSGTLGKTVTISCAGTSSDIGNYNYVSWYQQLPGTAPKLLIYEVNKRPSGIPDRFSGSKSGNTASLSISGLQSEDEADYYCASYRSSNNVVFGGGTKLTVL", "koff": 0.00013}
{"binder": "13E6 Fab (Fab, V domains shown, Fab from the phage display library, tested as periplasmic extract) VH: QVQLQESGGDLVQPGGSLRLSCAASGFTFDDYVMNWVRQAPGKGLEWISAINWNGGSTYYAESMKGRFTISRDNAKNTLYLQMYSLQSDDTAVYYCVKDTVVSGNGYWGQGTQVTVSS VL: QSVLTQPPSVSGTLGKTVTISCAGTSSDIGDYNYVSWYQQLPGTAPKLLIYDVNKRASGIPDRFSGSKSGNTASLSISGLQSEDEADYYCASYRSRNDYAFGGGTKLTVL", "koff": 0.00065}
{"binder": "20F1 Fab (Fab, V domains shown, Fab from the phage display library, tested as periplasmic extract) VH: EVQVQESGPGLVKPSQTLSLTCTVSGGSMTGNYYAWSWIRQPPGKGLEWMGVIAYDGSTYYSPSLKSRTSISRDTSKNQFSLQLSSVSPEDTAVYYCARGPGWYSGSRNDYWGQGTQVTVSS VL: QSALTQPPSVSGSPGKTVTISCTGTNSDVGYGNYVSWYQQLPGMAPKLLIYDVNRRASGIADRFSGSKSGNTASLTISGLQSEDEGDYHCASYRSANNAVFGGGTHLFVL", "koff": 0.0069}
